Test results published in article PMC2921665.
Where two headings read alike, the source gives them in different places.

B1: RecA SOS box (dsDNA)
DNA 1: GATGCCTGCGGATACTGTATGATCATACAGTATCAATTCTGGCT
DNA 2: AGCCAGAATTGATACTGTATGATCATACAGTATCCGCAGGCATC
B2: AT-repeat spacer (dsDNA)
DNA 1: GATGCCTGCGGATACTGTATATATATACAGTATCAATTCTGGCT
DNA 2: AGCCAGAATTGATACTGTATATATATACAGTATCCGCAGGCATC
B3: AT-GC spacer (dsDNA)
DNA 1: GATGCCTGCGGATACTGTATGCGCATACAGTATCAATTCTGGCT
DNA 2: AGCCAGAATTGATACTGTATGCGCATACAGTATCCGCAGGCATC
B4: A-tract spacer (dsDNA)
DNA 1: GATGCCTGCGGATACTGTAAAAAAAAACAGTATCAATTCTGGCT
DNA 2: AGCCAGAATTGATACTGTTTTTTTTTACAGTATCCGCAGGCATC
B5: GC-repeat spacer (dsDNA)
DNA 1: GATGCCTGCGGATACTGTGCGCGCGCACAGTATCAATTCTGGCT
DNA 2: AGCCAGAATTGATACTGTGCGCGCGCACAGTATCCGCAGGCATC
B6: TGC spacer (dsDNA)
DNA 1: GATGCCTGCGGATACTGTACGCGCGTACAGTATCAATTCTGGCT
DNA 2: AGCCAGAATTGATACTGTACGCGCGTACAGTATCCGCAGGCATC
B7: -1 spacer (dsDNA)
DNA 1: GATGCCTGCGGATACTGTATATATTACAGTATCAATTCTGGCT
DNA 2: AGCCAGAATTGATACTGTAATATATACAGTATCCGCAGGCATC
B8: +1 spacer (dsDNA)
DNA 1: GATGCCTGCGGATACTGTATATATAATACAGTATCAATTCTGGCT
DNA 2: AGCCAGAATTGATACTGTATTATATATACAGTATCCGCAGGCATC

Tests used:
LexA (EMSA protein) [1] = molecular target: T1, LexA (EMSA protein) (Escherichia coli, UniProt P0A7C2 1-202, K156A); assay: EMSA
LexA (EMSA protein) [2] = molecular target: T1, LexA (EMSA protein); assay: EMSA; remark: listed apart in the source

Binder | Kd (LexA (EMSA protein) [1]) [nM] | Kd (LexA (EMSA protein) [2]) [nM]
B1 | 1.67 ± 0.26 | 
B2 | 0.8 ± 0.27 | 
B3 | 1.59 ± 0.3 | 
B4 | 5.64 ± 0.78 | 
B5 |  | ~100
B6 | 2.4 ± 0.5 | 
B7 |  | ~250
B8 |  | ~200
